Earlier results on one substance are cited in PMC10825016.

Like-named read-outs stand apart in the source and are kept apart here.

As usually defined, the Kd is a measure of binding affinity in units of concentration.

Data set [1] concerns the target GrpE (Escherichia coli) (UniProt P09372).
For data set [2] the target is unchanged. The source holds these as a separate data set.

Sequence of GrpE (Escherichia coli) (P09372 whole entry): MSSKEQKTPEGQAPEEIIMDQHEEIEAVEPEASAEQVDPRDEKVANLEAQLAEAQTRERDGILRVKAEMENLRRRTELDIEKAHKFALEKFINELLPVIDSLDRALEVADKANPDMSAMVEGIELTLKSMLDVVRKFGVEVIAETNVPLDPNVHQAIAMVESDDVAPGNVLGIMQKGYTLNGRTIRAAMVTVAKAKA
Sequence of DnaK (P0A6Y8 2-638): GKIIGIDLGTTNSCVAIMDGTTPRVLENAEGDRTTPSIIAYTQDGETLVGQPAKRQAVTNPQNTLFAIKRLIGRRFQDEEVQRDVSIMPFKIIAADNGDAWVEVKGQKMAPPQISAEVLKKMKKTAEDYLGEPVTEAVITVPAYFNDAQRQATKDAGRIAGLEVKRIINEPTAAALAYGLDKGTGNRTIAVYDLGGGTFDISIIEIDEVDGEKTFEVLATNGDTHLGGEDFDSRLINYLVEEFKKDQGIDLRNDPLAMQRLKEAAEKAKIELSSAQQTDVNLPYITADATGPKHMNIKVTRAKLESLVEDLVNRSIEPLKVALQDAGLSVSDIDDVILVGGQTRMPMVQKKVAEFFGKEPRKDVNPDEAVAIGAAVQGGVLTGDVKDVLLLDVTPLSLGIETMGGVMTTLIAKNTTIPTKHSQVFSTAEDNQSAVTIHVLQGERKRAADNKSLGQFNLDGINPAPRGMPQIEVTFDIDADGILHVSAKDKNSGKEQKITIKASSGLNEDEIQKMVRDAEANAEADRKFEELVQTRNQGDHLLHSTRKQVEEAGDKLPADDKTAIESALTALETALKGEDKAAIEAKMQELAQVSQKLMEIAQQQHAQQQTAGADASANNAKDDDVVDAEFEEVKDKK

As for DnaK (from UniProt P0A6Y8), the Kd with GrpE (Escherichia coli) [1] is 0.011 µM; in the data set with GrpE (Escherichia coli) [2], 0.22 µM.
